Measurements taken from publication PMC4449551, “The dominant negative ARM domain uncovers multiple functions of PUB13 in Arabidopsis immunity, flowering, and senescence” (Journal of Experimental Botany, 2015).

Biological target: T1, GST–PUB13 (Arabidopsis, UniProt Q9SNC6 1-660)
T1 construct: PUB13, plant U-box E3 ubiquitin ligase of Arabidopsis, full length (UND, U-box and ARM repeat domain); also called full-length PUB13; source: E. coli BL21, purified (glutathione agarose)
T1 sequence (looked up): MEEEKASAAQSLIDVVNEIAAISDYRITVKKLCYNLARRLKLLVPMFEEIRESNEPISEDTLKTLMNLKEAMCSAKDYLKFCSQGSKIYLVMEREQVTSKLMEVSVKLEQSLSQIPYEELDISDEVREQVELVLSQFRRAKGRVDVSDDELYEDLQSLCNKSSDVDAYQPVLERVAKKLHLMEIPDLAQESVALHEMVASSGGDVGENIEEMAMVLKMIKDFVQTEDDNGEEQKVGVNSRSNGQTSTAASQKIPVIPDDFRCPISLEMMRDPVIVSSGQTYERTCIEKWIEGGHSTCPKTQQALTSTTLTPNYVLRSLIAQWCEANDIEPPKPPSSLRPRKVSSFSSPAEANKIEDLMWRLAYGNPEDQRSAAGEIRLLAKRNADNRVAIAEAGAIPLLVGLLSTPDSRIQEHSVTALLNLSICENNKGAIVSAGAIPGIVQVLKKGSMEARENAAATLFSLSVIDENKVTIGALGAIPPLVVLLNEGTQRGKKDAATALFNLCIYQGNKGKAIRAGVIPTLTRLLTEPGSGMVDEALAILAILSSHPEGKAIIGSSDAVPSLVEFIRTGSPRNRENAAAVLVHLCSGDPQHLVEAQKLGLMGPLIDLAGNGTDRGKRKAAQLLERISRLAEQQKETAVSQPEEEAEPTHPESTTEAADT
Assay: pull-down; About 10 μg of MBP or MBP fusion on amylose beads as bait, 10 μg of GST-tagged protein in 1 ml pull-down buffer (20mM TRIS-HCl pH 7.5, 1mM β-mercaptoethanol, 3mM EDTA, 150mM NaCl, 1% NP-40), 1h at 4 °C; western blot with α-GST (Fig. 1B, 1F)
Details: both partners purified

B1: MBP–BAK1CD (domain or fragment, Arabidopsis, UniProt Q94F62 247-615, looked up)
chain: AWWRRKKPQDHFFDVPAEEDPEVHLGQLKRFSLRELQVASDNFSNKNILGRGGFGKVYKGRLADGTLVAVKRLKEERTQGGELQFQTEVEMISMAVHRNLLRLRGFCMTPTERLLVYPYMANGSVASCLRERPESQPPLDWPKRQRIALGSARGLAYLHDHCDPKIIHRDVKAANILLDEEFEAVVGDFGLAKLMDYKDTHVTTAVRGTIGHIAPEYLSTGKSSEKTDVFGYGVMLLELITGQRAFDLARLANDDDVMLLDWVKGLLKEKKLEALVDVDLQGNYKDEEVEQLIQVALLCTQSSPMERPKMSEVVRMLEGDGLAERWEEWQKEEMFRQDFNYPTHHPAVSGWIIGDSTSQIENEYPSGPR
notes: BAK1 (BRI1-associated kinase), receptor-like kinase of Arabidopsis, cytoplasmic domain; also called cytoplasmic domain of BAK1; BAK1 cytosolic domain; source: E. coli BL21, purified (amylose)
B1: binds.
